A short description of data set [1]: Km of L27V reversion variants for PBI-3939. In kind it is biochemical. The protocol: Relative activities <1 indicate the reversion is detrimental compared to the residue at that site in the L27V variant. Relative activities >1 indicate the reversion is favorable for activity compared to the residue at that site in the L27V variant. Some additional data on these mutants indicated the following: 166K, 54F, 54A and L27V were tested for thermal stability. The T1/2 60° C. for 166K, 54F, and 54A were 87, 74, and 33%, respectively, indicating these substitutions cause a reduction in thermal stability. […] This indicates higher substrate affinity for L27V, particularly for the position 54 substitutions.

Data set [2] concerns caspase-3. As to the kind of experiment: Caspase-3 bioluminescent assay with L27V and PBI-3741. The class given is biochemical. Conditions: luminescence, 3 hrs at room temperature. The protocol: (§1) 2. The L27V variant was used in a bioluminescent assay using a pro-coelenterazine substrate comprising the DEVD caspase-3 cleavage sequence “DEVD” disclosed as SEQ ID NO: 581). Purified caspase-3 enzyme (1 mg/mL) in 100 mM MES pH 6 (50 μL) was mixed with 227 nM L27V02 variant and 47 μM PBI-3741 (z-DEVD-coelenterazine-h (“DEVD” disclosed as SEQ ID NO: 581)) in assay buffer (50 μL). Reactions were incubated for 3 hrs at room temperature, and luminescence detected as previously described. The assay with the L27V variant was compared to a firefly luciferase version of the assay, CASPASE-GLO® 3/7-Assay system (Caspase-Glo; Promega Corp.).

Data set [3] has as its target T1, caspase-3 (Homo sapiens, UniProt P42574).
T1 sequence (P42574 29-175 limits assumed): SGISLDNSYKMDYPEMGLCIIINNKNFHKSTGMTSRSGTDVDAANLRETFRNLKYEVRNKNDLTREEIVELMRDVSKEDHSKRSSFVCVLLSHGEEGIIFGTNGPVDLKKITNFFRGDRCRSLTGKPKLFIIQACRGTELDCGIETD
T1 sequence (P42574 176-277 limits assumed): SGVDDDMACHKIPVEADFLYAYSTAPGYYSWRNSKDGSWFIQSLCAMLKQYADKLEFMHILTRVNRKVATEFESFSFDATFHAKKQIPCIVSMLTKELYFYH
The description is as above. In kind it is biochemical. Conditions: luminescence, 3 hrs at room temperature. The protocol:
as §1

The subject of data set [4] is cAMP response element (CRE). Description: CRE transcriptional reporter, forward transfection, HEK293 cells. In kind it is cell-based, human. To be noted: for baseline: 10 nM FSK; for baseline / RLU (10 μM FSK): 3 h. Further details: Response: scale not given here. The protocol:
HEK293 cells were plated at 15,000 cells/well in six 96-well tissue culture plates. Cells were grown in 100 μL of DMEM+10% FBS+1× non-essential amino acids (NEAA) and incubated overnight at 37° C. The cells were transiently transfected with either 10 ng or 100 ng plasmid DNA/well of pGL4.29 9B8 opt, pGL4.29 9B8 opt-P, or pGL4.29. Plasmid DNA was mixed with 850 μL of OPTI-MEM® (Invitrogen) and 32.4 μL of FUGENE® HD transfection reagent (Promega Corp.) and incubated at room temperature for 10 min. Eight μL of the transfection/reporter DNA mixture was added to the appropriate wells (2 constructs/plate). Cells were incubated for 4 hrs at 37° C. The medium was replaced with OPTI-MEM®+0.5% dialyzed FBS+1×NEAA+1× sodium pyruvate+1× Penn-Strep and incubated overnight at 37° C.
A lytic reagent containing 100 mM MES pH 6.1, 1 mM CDTA, 150 mM KCl, 35 mM thiourea, 2 mM DTT, 0.25% TERGITOL® NP-9 (v/v), 0.025% MAZU® DF 204, and 20 μM PBI-3939 was added to the cells containing pGL4.29 9B8 opt or pGL4.29 9B8 opt-P and allowed to incubated for 10 min at room temperature (100 μL lytic reagent added to 100 μL cells). ONE-GLO™ assay reagent (Promega Corp.) was added to cells containing pGL4.29 and used according to the manufacturer's protocol (100 μL reagent added to 100 μL cells). Luminescence was measured on a GLOMAX® Luminometer.

For the next data set, the system named is CRE. Description: CRE transcriptional reporter, bulk transfection, NIH3T3 cells. In kind it is cell-based. The protocol:
The transcriptional reporter containing […] and 9B8 opt-P was used in the bulk transfection of HeLa cells
HEK293, NIH3T3, or HeLa cells were plated to a single well of a 6-well tissue culture plate the day before transfection at a density of 4.5×10^5 cells/well in 3 mL complete medium (DMEM+10% FBS+1×NEAA+1× sodium pyruvate) for HEK293 cells, 3×10^5 cellsNvell in 3 mL complete medium (DMEM+10% fetal calf serum (FCS)+1×NEAA+1× sodium pyruvate) for NIH3T3 cells, or 9.9×10^5 cells/well in 3 mL complete medium (DMEM+10% FBS+1×NEAA) for HeLa cells. Cells were grown overnight at 37° C.
3,300 ng of reporter plasmid DNA in 155 4 OPTI-MEM® was mixed with 9.9 μL FUGENE® HD transfection reagent, vortexed briefly, and incubated at room temperature for 10 min. The CRE transcriptional reporters were used to transfect HEK293 and NIH3T3 cells. The HRE transcriptional reporters were used to transfect HeLa cells. The reporter mixture was added to cells and mixed by gentle rocking followed by incubation at 37° C. for 6 hrs (HEK293 and NIH3T3) or 3 hrs (HeLa). Cells were then trypsinized and resuspended in medium (DMEM+10% FBS+1×NEAA+1× sodium pyruvate for HEK293 cells, DMEM+10% FCS+1×NEAA+1× sodium pyruvate for NIH3T3 cells, or DMEM+10% FBS+1×NEAA for HeLa cells), followed by plating to the individual wells of a 96-well plate (20,000 cells/100 μL for HEK293, 10,000 cells/100 4 for NIH3T3, or […] for HeLa) and incubated at 37° C. overnight.
FSK (CRE stimulator) or 17-AAG (HRE stimulator; 17-Allylamino-demethoxy geldanamycin) in OPTI-MEM® was added to the cells (10 nM or 10 μM final concentration for FSK; 1 nM or 1 μM final concentration for 17-AAG) and incubated at 37° C. for 4 hrs (FSK) or 6 hrs (17-AAG). Plates were removed from the incubator and allowed to equilibrate to room temperature for 25 min. Cells were lysed with 100 μL lytic reagent as described above for the forward transfection. Luminescence was measured on a GLOMAX® Luminometer.

Consider 2 molecules from patent US8809529B2, “Imidazo[1,2-α]pyrazine derivatives” (Promega Corporation, priority 2010, dated 2014).

B1: L27V: 9B8 opt+K33N variant with L27V, T39T, K43R, Y68D (protein)
chain: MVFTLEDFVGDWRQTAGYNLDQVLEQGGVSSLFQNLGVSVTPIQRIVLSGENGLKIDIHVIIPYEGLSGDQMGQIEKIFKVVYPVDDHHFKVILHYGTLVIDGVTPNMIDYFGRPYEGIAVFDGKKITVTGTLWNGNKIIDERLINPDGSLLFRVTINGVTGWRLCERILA
The term Km denotes the substrate concentration at which the rate is half of its maximum. As to B1, the Km in data set [1] was found to be 18 µM. The “(−) caspase” value with caspase-3 [2] worked out at 803. Also, the “(+) caspase” value with caspase-3 [3] was 11,532.

B2: 9B8 opt: codon optimized version of the 9B8 variant (protein)
chain: MVFTLEDFVGDWRQTAGYNLDQVLEQGGLSSLFQKLGVSVTPIQKIVLSGENGLKIDIHVIIPYEGLSGYQMGQIEKIFKVVYPVDDHHFKVILHYGTLVIDGVTPNMIDYFGRPYEGIAVFDGKKITVTGTLWNGNKIIDERLINPDGSLLFRVTINGVTGWRLCERILA
Take B2: the Response in data set [4] (10 ng DNA for transfection) is on record as 67; in data set [4] (100 ng DNA for transfection), 34; with CRE (NIH3T3, FSK), 2.6. Also, the baseline in data set [4] (10 ng DNA for transfection) is given as 192810; in data set [4] (100 ng DNA for transfection), 3,078,418; in the data set with CRE (NIH3T3, 10 nM FSK, 4 h), 9,187,000. Also, the results for the “RLU (10 μM FSK)” value in data set [4] (10 ng DNA for transfection) and in data set [4] (100 ng DNA for transfection) were 12,926,465 RLU and 104,687,723 RLU, respectively. Further, the “RLU (10 mM FSK)” value in the data set on CRE (NIH3T3, 4 h) is recorded as 23,600,000 RLU.
